Data on five molecules can be found in US20180164324A1 (INSERM INSTITUT NATIONAL DE LA SANT ET DE LA RECHERCHE M …, published 2018).

Residue numbers refer to the chain shown, from its start. Names and notes keep the numbering of the source. A value given as a limit tells only on which side of the number the result lay.

For assay [1], the target named is GFP10-RhoB (wild-type RhoB fused to GFP10). The experiment in a line: cell-based or functional assay.
For assay [2], the target named is Ras binding domain of c-Raf (RsBD)-GFP11. Kind of assay: tripartite split-GFP complementation in GFP1-9 cells, flow cytometry.
For assay [3], the target named is reconstituted split-GFP (positive cells: 10-R-11, 10-Zipper-11, 10-zipper/zipper-11 with GFP1-9). Kind of assay: cell-based or functional assay.
The target in assay [4] is T1, Rho-binding domain of Rhotekin (RBD)-GFP11.
T1 construct: also called RBD-11
T1 chain: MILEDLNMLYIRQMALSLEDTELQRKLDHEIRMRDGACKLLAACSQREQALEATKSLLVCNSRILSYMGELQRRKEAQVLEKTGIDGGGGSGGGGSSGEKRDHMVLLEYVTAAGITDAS
The experiment in a line: tripartite split-GFP complementation in GFP1-9 cells, flow cytometry.

In assay [5] the target is T1, Rho-binding domain of Rhotekin …. The experiment in a line: tripartite split-GFP complementation in GFP1-9 cells, fluorescence microscopy.

For the molecule “cell-permeant recombinant TAT-C3 exoenzyme (from UniProt P15879 41-251)”, the inhibition of RhoB activation (split-GFP fluorescence) in assay [1] is greater than 10 µg/mL.
As for “GFP10-H-Ras G12V (dominant positive, GTP-bound variant)”, the induction ratio of split-GFP fluorescence against GDP-bound (S17N) H-Ras in assay [2] worked out at 3 fold.

B1: Myc-VHH anti-GFP nanobody (VHH)
VHH: QVQLVESGGALVQPGGSLRLSCAASGFPVNRYSMRWYRQAPGKEREWVAGMSSAGDRSSYEDSVKGRFTISRDDARNTVYLQMNSLKPEDTAVYYCNVNVGFEYWGQGTQVTVSS
B1 showed a mean fluorescence intensity of the positive cells in assay [3] of 4 fold.

B2: GFP10-RhoB Q63L (constitutively active, dominant positive variant) (other)
chain: MGDLPDDHYLSTQTILSKDLNIDGGGGSGGGGSSGAAIRKKLVVVGDGACGKTCLLIVFSKDEFPEVYVPTVFENYVADIEVDGKQVELALWDTAGLEDYDRLRPLSYPDTDVILMCFSVDSPDSLENIPEKWVPEVKHFCPNVPIILVANKKDLRSDEHVRTELARMKQEPVRTDDGRAMAVRIQAYDYLECSAKTKEGVREVFETATRAALQKRYGSQNGCINCCKVL
notes: also called GFP10-Rho active mutant (Q63L)
For B2, the “fold induction of split-GFP fluorescence against the inactive variant (T19N)” value in assay [4] was 5 fold.

B3: GFP10-RhoB T19N (dominant negative variant) (other)
chain: B2 chain with T53N, L97Q
As for B3, the binding result in assay [5] was “no binding”.
